T1: recombinant human SEMA4A AviHis10, biotinylated (human, UniProt Q9H3S1 33-683, biotin on the Avi tag (BirA))
T1 construct: The text says amino acids 33-683 of Q9H3S1 with C-terminal Avi tag and His10 tag; also called avi-SEMA4A-His10
T1 sequence: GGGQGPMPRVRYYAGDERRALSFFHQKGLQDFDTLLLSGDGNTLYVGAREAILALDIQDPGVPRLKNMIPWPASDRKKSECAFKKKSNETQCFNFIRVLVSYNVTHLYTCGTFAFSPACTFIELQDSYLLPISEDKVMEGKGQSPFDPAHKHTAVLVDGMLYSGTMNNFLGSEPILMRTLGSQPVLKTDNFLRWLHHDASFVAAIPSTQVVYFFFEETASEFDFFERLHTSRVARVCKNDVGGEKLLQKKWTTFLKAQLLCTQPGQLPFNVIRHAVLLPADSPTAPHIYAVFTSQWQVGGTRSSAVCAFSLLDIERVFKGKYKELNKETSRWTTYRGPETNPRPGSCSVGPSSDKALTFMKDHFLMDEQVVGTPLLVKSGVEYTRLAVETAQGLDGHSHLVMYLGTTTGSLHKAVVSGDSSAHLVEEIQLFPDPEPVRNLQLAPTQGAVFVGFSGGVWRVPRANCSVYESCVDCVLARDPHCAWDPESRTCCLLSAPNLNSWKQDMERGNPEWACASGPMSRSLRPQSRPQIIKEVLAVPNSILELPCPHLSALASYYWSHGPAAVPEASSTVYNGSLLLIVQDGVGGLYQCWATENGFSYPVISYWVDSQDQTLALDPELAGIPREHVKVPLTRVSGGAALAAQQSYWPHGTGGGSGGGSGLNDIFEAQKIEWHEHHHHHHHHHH

T2: recombinant cynomolgus SEMA4A AviHis10, biotinylated (cynomolgus, UniProt Q9H3S1 32-677 (human entry), biotin on the Avi tag (BirA))
T2 construct: The text says amino acids 32-679 of G7NV79 with C-terminal Avi tag and His10 tag; also called Cyno SEMA4A AviHis10; cynoSEMA4A
T2 chain: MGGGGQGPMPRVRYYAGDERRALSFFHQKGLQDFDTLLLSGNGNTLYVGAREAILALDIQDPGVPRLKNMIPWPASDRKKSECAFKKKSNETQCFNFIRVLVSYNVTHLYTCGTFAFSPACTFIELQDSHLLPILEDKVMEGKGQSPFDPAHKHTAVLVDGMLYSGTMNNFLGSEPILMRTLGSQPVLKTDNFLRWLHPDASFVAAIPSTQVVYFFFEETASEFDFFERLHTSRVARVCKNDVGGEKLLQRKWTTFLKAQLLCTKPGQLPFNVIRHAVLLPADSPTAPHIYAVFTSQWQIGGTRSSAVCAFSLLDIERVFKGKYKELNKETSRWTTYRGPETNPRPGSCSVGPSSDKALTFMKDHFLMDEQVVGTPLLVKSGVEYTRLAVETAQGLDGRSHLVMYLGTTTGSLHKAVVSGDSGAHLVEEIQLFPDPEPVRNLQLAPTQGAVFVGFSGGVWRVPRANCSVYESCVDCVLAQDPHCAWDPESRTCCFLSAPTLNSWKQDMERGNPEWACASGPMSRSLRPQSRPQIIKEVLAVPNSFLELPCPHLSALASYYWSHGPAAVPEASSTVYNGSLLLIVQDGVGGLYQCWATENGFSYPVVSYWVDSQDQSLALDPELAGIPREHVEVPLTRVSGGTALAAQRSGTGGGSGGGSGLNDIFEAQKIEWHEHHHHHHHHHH


Experiments:
[1] = target: T1, recombinant human SEMA4A AviHis10, …; assay: BLI (OctetRED), biotinylated SEMA4A on streptavidin tip, IgG as analyte, 1:1 model; KD(observed) IgG
Procedure: (§1) An Octet Kinetics buffer (PBS containing 0.01% (v/v) BSA and 0.002% (v/v) Tween20) is typically used as the diluent buffer for the analyte samples and as the flow buffer during the dissociation phase. The experimental data is recorded as shift in interference pattern (nm) over time, which is directly proportional to the optical thickness at the biosensor tip, which in turn is an approximate measure of the mass of analyte bound. The proprietary Octet Data Analysis software package can then be used to process data and fit binding models to the data sets. Returned association (ka, M-1 s-1) and dissociation (kd, s-1) rate constants allow calculation of dissociation (KD, M) affinity constants.
(§2) The affinity of binding between the analytes (humanised and phage display derived IgGs as human Alya IgG1s and Fabs) and human SEMA4A and cynomolgus SEMA4A, was estimated using assays in which the biotinylated SEMA4A antigen was captured on a streptavidin sensor tip. A fresh sensor tip was used for each measurement and no regeneration was used. A series of dilutions of the lead Fabs and human Alya IgG1s (3.25-240 nM) were individually placed in contact with the ligand surface for a sufficient amount of time to observe sensorgrams that could be fitted to an appropriate binding model with confidence (typically 5 minutes), followed by an appropriate length of dissociation time (typically 10 minutes). Blank reference (0 nM analyte) data were subtracted from each dataset to reduce the impact of any buffer artefacts or non-specific binding effects. A 1:1 binding model was then fitted simultaneously to the data from each analyte titration using the Octet Evaluation software (Table 8).

[2] = target: T2, recombinant cynomolgus SEMA4A AviHis10, …; assay: as above
Procedure: as §1, §2

[3] = target: T1, recombinant human SEMA4A AviHis10, …; assay: BLI (OctetRED), biotinylated SEMA4A on streptavidin tip, IgG as analyte, 1:1 model; KD(observed) IgG; human SEMA4A; IgG, not Fab
Procedure: as §1
as §2, with “Blank reference (0 nM analyte) data were subtracted from each dataset to reduce the impact of any buffer artefacts or non-specific binding effects. A 1:1 binding model was then fitted simultaneously to the data from each analyte titration using the Octet Evaluation software (Table 8).” left out

Binder | Kd [1] [nM] | Kd [2] [nM] | Kd [3] [nM]
C0120914 human Alya IgG1 (antibody, V domains shown, Fully human, phage display derived; human IgG1 Alya constant (239iCys, S442C, EU); unconjugated) VH: QVQLQESGPGLVKPSETLSLTCTVSGGSVSSGRYDWSWIRQPPGKGLEWIGHIYYTGITDYNPSLRSRVTISADKPKNQFSLKLNSVTAADTAVYYCARGPFFDPWGQGTMVTVSS VL: QSVLTQPPSVSVAPGQTASLTCGANNIGSKSVQWYQQKPGQAPVLVVYDGSDRPSGIPDRFSGSSSENTATLTISRVEAGDEADYYCQLWDSVTDRPVFGGGTKVTVL | 21 | 97 | 
5Hg1-5Lg1 human Alya IgG1 (antibody, V domains shown, Humanised 5E3; human IgG1 Alya constant (239iCys, S442C, EU), lambda light chain; purified, unconjugated) VH: QVQLVQSGAEVKKPGASVKVSCKASGYTFTDYWMHWVRQAPGQGLEWMGAIDTSDSYTSYNQKFKGRVTMTRDTSTSTVYMELSSLRSEDTAVYYCARDYGNFYYYAMDYWGQGTLVTVSS VL: QAVVTQEPSLTVSPGGTVTLTCRSSTGAVTTSNYANWFQQKPGQAPRTLIYGTNNRAPWTPARFSGSLLGGKAALTLSGAQPEDEAEYYCALWYSNHWVFGGGTKLTVL | ≤ 2 |  | 
5Hg2-5Lg2 human Alya IgG1 (antibody, V domains shown, Humanised 5E3; human IgG1 Alya constant (239iCys, S442C, EU), lambda light chain; purified, unconjugated) VH: QVQLVQSGAEVKKPGASVKVSCKASGYTFTDYWMHWVRQAPGQRLEWMGAIDTSDSYTSYNQKFKGRVTITRDTSASTAYMELSSLRSEDTAVYYCARDYGNFYYYAMDYWGQGTLVTVSS VL: QAVVTQEPSLTVSPGGTVTLTCRSSTGAVTTSNYANWFQQKPGQAPRTLIYGTNNRAPWTPARFSGSLLGGKAALTLLGAQPEDEAEYYCALWYSNHWVFGGGTKLTVL | ≤ 2 |  | 
C0120917 human Alya IgG1 (antibody, V domains shown, Fully human, phage display derived; human IgG1 Alya constant (239iCys, S442C, EU); unconjugated) VH: not shown VL: NFMLTQPHSVSESPGKTVTISCTASGDTLDNKYVNWYQVRPGSAPATLIFHYEERDSGVPDRFSGSFDASSNSASLTISGLQTADEADYFCQSYDSKRDNLVVFGGGTKVTVL | 14 | 6 | 
C0120918 human Alya IgG1 (antibody, V domains shown, Fully human, phage display derived; human IgG1 Alya constant (239iCys, S442C, EU); unconjugated) VH: not shown VL: SYELTQPPSVSVSPGQTARITCSGDALPKQYAYWYQQKPGQAPVLVIYKDSERPSGIPERFSGSSSGTTVTLTISGVQAEDEADYYCQSADSSGTWVFGGGTKVTVL | 9 | 9 | 
C0120906 human Alya IgG1 (antibody, V domains shown, Fully human, phage display derived; human IgG1 Alya constant (239iCys, S442C, EU); unconjugated) VH: EVQLVQSGPEVKKPGASVKISCKASGYKLNDPGVHGVSWVRQAPGQGLEWMGWISTLNGDTRYAQKFQGRVTMATDSSTSTIYMDLRSLKSDDTALYYCARDDYTAIFDFWGRGTLVTVSS VL: QSVLTQPPSVSVAPGQTASITCGGSNIGSQSVHWYQQKPGQAPVLVVYDDSDRPSGIPERFSGSKSGNTASLILSRVEAGDEADYYCQVWDSSTDHHVFGTGTKVTVL | 11 | 2 | 
C0120903 human Alya IgG1 (antibody, V domains shown, Fully human, phage display derived; human IgG1 Alya constant (239iCys, S442C, EU); unconjugated) VH: EVQLVQSGAEVKKPGSSMKVSCKASGGTFNSYTINWVRQAPGQGLEWVGGFIPIFGTADYAQKFHGRVAITADESMSTAYMELSSLRSEDTAVYYCARAPLGSEPFDYWGQGTMVTVSS VL: SYVLTQPPSVSVAPGQTARITCGGNNIGSKSVHWYQQKPGQAPVLVVYDDSDRPSGIPERFSGSNSGNTATLTISRVEAGDEADYYCQVWDSSSDHLVFGGGTKLTVL | 6 | 20 | 
C0120905 human Alya IgG1 (antibody, V domains shown, Fully human, phage display derived; human IgG1 Alya constant (239iCys, S442C, EU); unconjugated) VH: not shown VL: NFMLTQPHSVSESPGKTVTISCTGSGGNIVDNFVQWHQQRPGSAPRTVIYEDDQRPSGVPDRFSASVDSSSNSGTLSISGLKTEDEADYYCQSYDGANRWVFGGGTKLTVL | 10 | 9 | 
mouse 5E3 expressed as human IgG1 Alya (antibody, V domains shown, Mouse variable domains on human IgG1 Alya constant (pEU1.22; 239iCys and S442C, EU numbering); purified, unconjugated; also called 5E3 IgG1 Alya) VH: QVQLQQPGAELVMPGASVKMSCKASGYTFTDYWMHWVKQRPGQGLEWIGAIDTSDSYTSYNQKFKGKATLTVDESSSTAYMQLSSLTSEDSAVYYCARDYGNFYYYAMDYWGQGTSVTVSS VL: QAVVTQESALTTSPGETVTLTCRSSTGAVTTSNYANWVQEKPDHLFTGLIGGTNNRAPGVPARFSGSLIGDKAALTITGAQTEDEAIYFCALWYSNHWVFGGGTKLTVL |  | ≤ 1 | ≤ 1
